Reference: patent US20210032351A1 (XDCEXPLORER SHANGHAI, published 2021)
Numbering of substitutions follows the chain as printed. Blank lines part the entries; values can stand above or below the binder they belong to.

Key:
[1] = target: T1, human EGFRvIII-hFc protein (human, UniProt P00533 25-645); assay: ELISA, coated EGFRvIII-hFc, antibody 0.001 nM
T1 construct: extracellular domain; made in HEK293 cells, purified on protein A; also called immunogen A; hFc-tagged EGFRvIII protein; not shown: human IgG Fc fragment (hFc) of the pCpC vector
Method: (§1) The purified immunogen A (EGFRvIII-hFc) obtained in example 1 (for the preparation method, see step (I) in example 1) is diluted with PBS to a final concentration of 1.0 μg/mL, and then added to a 96-well ELISA plate at 100 μl/well. The plate is sealed with a plastic film and incubated at 4° C. overnight. The next day, the plate is washed twice with a plate washing solution [PBS+0.01% (v/v) Tween20], and added with a blocking solution [PBS+0.01% (v/v) Tween20+1% (w/w) BSA] for blocking 2 hours at room temperature. The blocking solution is discarded, and the purified EGFRvIII antibody obtained in example 2 is added at 100 μl/well. The plate is incubated for 2 hours at 37° C., and then washed 3 times with the plate washing solution [PBS+0.01% (v/v) Tween20]. The plate is added with an HRP (horseradish peroxidase) labeled secondary antibody (purchased from Sigma), incubated at 37° C. for 2 hours, and then washed 3 times with the plate washing solution [PBS+0.01% (v/v) Tween20]. The plate is added with 100 μl of TMB substrate/well, incubated for 30 minutes at room temperature, and then added with 100 μl of stopping solution (1.0N HCl)/well. A450 nm value is read using an ELISA plate reader (SpectraMax 384plus, purchased from Molecular Device), and the results are shown in FIG. 6 and table 10.

[2] = target: T1, human EGFRvIII-hFc protein; assay: ELISA, coated EGFRvIII-hFc, antibody 0.0001 nM
Method: as §1

[3] = target: T1, human EGFRvIII-hFc protein; assay: ELISA, coated EGFRvIII-hFc, antibody 10 nM
Method: as §1

[4] = target: T1, human EGFRvIII-hFc protein; assay: ELISA, coated EGFRvIII-hFc, antibody 1 nM
Method: as §1

[5] = target: T1, human EGFRvIII-hFc protein; assay: ELISA, coated EGFRvIII-hFc, antibody 100 nM
Method: as §1

[6] = target: T1, human EGFRvIII-hFc protein; assay: ELISA, coated EGFRvIII-hFc, antibody 0.01 nM
Method: as §1

[7] = target: T1, human EGFRvIII-hFc protein; assay: ELISA, coated EGFRvIII-hFc, antibody 0.1 nM
Method: as §1

[8] = target: T2, wild-type EGFR protein on the surfaces of A431 tumor cells and normal human primary hepatocytes (human, UniProt P00533 25-1210); assay: FACS, A431 tumor cells
T2 construct: whole, on cells; Same protein on two cell types; also called human epidermal growth factor receptor; her-1
Method: (§2) The preparation of U87MG-EGFRvIII required for FACS detection is as described in the preparation of the immunogen B in example 1. Normal human primary hepatocytes are purchased from BioreclamationIVT, and A431 tumor cells are purchased from ATCC. The recovered hepatocytes are directly used for FACS detection, and the recovered U87MG-EGFRvIII and A431 cells are subjected to an expanded culture to 90% confluence in a T-75 cell culture flask; the medium is sucked out, and the cells are washed twice with a HBSS buffer (Hanks Balanced Salt Solution) (purchased from Invitrogen), and then treated with an enzyme-free cell dissociation solution (Versene solution: purchased from Life Technology) and collected. The cells are washed twice with the HBSS buffer and are counted, and then the cells are diluted with the HBSS buffer to 2×10⁶ cells/ml, added with 1% goat serum blocking solution, with the percentage being the mass percentage, and incubated on ice for 30 minutes, and then centrifugally washed twice with the HBSS buffer. The collected cells are resuspended to 2×10⁶ cells/mL with an FACS buffer (HBSS+2% FBS, with the percentage being the volume percentage), added to a 96-well FACS reaction plate at 100 μL/well, then added with 100 μL/well of the purified EGFRvIII antibody (samples to be tested) obtained in example 12, and incubated on ice for 2 hours. The plate is centrifugally washed twice with the FACS buffer, added with 100 μL/well of a 1:1000 diluted fluorescence (Alexa 488) labeled secondary antibody (purchased from Invitrogen), and incubated on ice for 1 hour. The plate is centrifugally washed 3 times with the FACS buffer, added with 100 μL/well of a fixing solution [4% (v/v) paraformaldehyde] to resuspend the cells, and centrifugally washed twice with the FACS buffer after 10 minutes. The cells are resuspended in 100 μL of the FACS buffer, and the results are detected and analyzed by FACS (FACS Calibur, purchased from BD). Data analysis is performed by using the software (CellQuest) to obtain the mean fluorescence intensity (MFI) of the cells. Data is further analyzed by using the software (GraphPad Prism5) to perform data fitting and calculate EC50.

[9] = target: T2, wild-type EGFR protein on the surfaces …; assay: FACS, normal human primary hepatocytes
Method: as §2

[10] = target: T2, wild-type EGFR protein on the surfaces …; assay: FACS, MFI on A431 cells over MFI on normal primary hepatocytes
Method: as §2

- OD450 nm [1]: 0.09
- OD450 nm [2]: 0.08
- OD450 nm [3]: 3.76
- OD450 nm [4]: 3.42
- OD450 nm [5]: 3.71
- OD450 nm [6]: 0.17
- OD450 nm [7]: 0.8
B1: Murine anti-63A10 (antibody, V domains shown)
VH: QVQLQQSGAELARPGASVKMSCKASGYTFISFTMHWVKQRPGQGLEWIGYINPNSGYTKYNQKFKDKATLTAGQSSSTAYMQLSSLTSEDSAVYYCTRGGGRGFAYWGQGTLVTVSA
VL: DILMTQSPSSMSVSLGDTVTITCHASQDINSNIGWLQQKPGKSFKALIYHGTNLEDGVPSRFSGSGSGADYSLTISSLESEDFADYYCVQYAQFPFTFGSGTKLEIK
notes: murine hybridoma antibody; also called 63A10A7

- OD450 nm [1]: 0.09
- OD450 nm [2]: 0.08
- OD450 nm [3]: 3.76
- OD450 nm [4]: 3.51
- OD450 nm [5]: 3.73
- OD450 nm [6]: 0.16
- OD450 nm [7]: 1
B3: Murine anti-64F1 (antibody, V domains shown)
VH: B1 VH with I30S, F32Y, V37A, N54S, G73D, Q74K, A92I, T97A
VL: QIVLTQSPAIMSASPGERVTMTCSASSSVSYMYWYQQKPGSSPRLLIYDTSNLASGVPVRFSGSGSGTSYSLTISRVEAEDAATYYCQQWSSYSLTFGAGTKLELK
notes: murine hybridoma antibody; also called 64F1F8

- mean fluorescence intensity (MFI) [8]: 1320 MFI
- mean fluorescence intensity (MFI) [9]: 265 MFI
- Selective window (MFIA431/Hepatocytes) [10]: 5 ratio
B8: Humanized antibody h63A10A7-37 (antibody, human IgG1, V domains shown)
VH: QVQLVQSGAEVKKPGASVKVSCKASGYTFISFTMHWVKQRPGQGLEWMGYINPNSGYTKYNQKFKDKATMTRDTSTSTVYMELSSLRSEDTAVYYCTRGGGRGFAYWGQGTLVTVSS
VL: B1 VL with L3Q, M11L, V13A, L15V, T18R, S72T, E79Q, S80P, D85T, S100Q
notes: Human IgG1 constant region, human kappa constant region

- mean fluorescence intensity (MFI) [8]: 1960 MFI
- mean fluorescence intensity (MFI) [9]: 261 MFI
- Selective window (MFIA431/Hepatocytes) [10]: 7.5 ratio
B9: Humanized antibody h63A10A7-39 (antibody, human IgG1, V domains shown)
VH: B8 VH with M48I, K67R, A68V, M70L
VL: B1 VL with L3Q, M11L, V13A, L15V, T18R, S72T, E79Q, S80P, D85T, S100Q
notes: as for B8

- mean fluorescence intensity (MFI) [8]: 1060 MFI
- mean fluorescence intensity (MFI) [9]: 254 MFI
- Selective window (MFIA431/Hepatocytes) [10]: 4.2 ratio
B11: Humanized antibody h63A10A7-38 (antibody, human IgG1, V domains shown)
VH: B8 VH with K38R, R40A, M48I, M70L
VL: B1 VL with L3Q, M11L, V13A, L15V, T18R, S72T, E79Q, S80P, D85T, S100Q
notes: as for B8

- mean fluorescence intensity (MFI) [8]: 6130 MFI
- mean fluorescence intensity (MFI) [9]: 435 MFI
- Selective window (MFIA431/Hepatocytes) [10]: 14.1 ratio
B12: Humanized antibody h63A10A7-26 (antibody, human IgG1, V domains shown)
VH: B8 VH with M48I, M70L
VL: DILMTQSPSSLSASVGDRVTITCHASQDINSNIGWYQQKPGKSFKALIYHGTNLEDGVPSRFSGSGSGADFTLTISSLQPEDFATYYCVQYAQFPFTFGQGTKLEIK
notes: as for B8

The next lines start with the binder.

B2: Chimeric antibody c63A10A7 (antibody, human IgG1, V domains shown)
VH: B1 VH
VL: B1 VL
notes: also called chimeric antibody 63A10
- mean fluorescence intensity (MFI) [8]: 4730 MFI
- mean fluorescence intensity (MFI) [9]: 299 MFI
- Selective window (MFIA431/Hepatocytes) [10]: 15.8 ratio

B4: Humanized antibody h63A10A7-24 (antibody, human IgG1, V domains shown)
VH: B8 VH with M48I, M70L
VL: B12 VL with Y36L, A69T, F71Y
notes: as for B8
- mean fluorescence intensity (MFI) [8]: 9860 MFI
- mean fluorescence intensity (MFI) [9]: 502 MFI
- Selective window (MFIA431/Hepatocytes) [10]: 19.6 ratio

B5: Humanized antibody h63A10A7-23 (antibody, human IgG1, V domains shown)
VH: B8 VH with M48I, M70L
VL: B12 VL with Y36L, S43A, F44P, F71Y
notes: as for B8
- mean fluorescence intensity (MFI) [8]: 4000 MFI
- mean fluorescence intensity (MFI) [9]: 661 MFI
- Selective window (MFIA431/Hepatocytes) [10]: 6 ratio

B6: Humanized antibody h63A10A7-25 (antibody, human IgG1, V domains shown)
VH: B8 VH with M48I, M70L
VL: B12 VL with F71Y
notes: as for B8
- mean fluorescence intensity (MFI) [8]: 7360 MFI
- mean fluorescence intensity (MFI) [9]: 433 MFI
- Selective window (MFIA431/Hepatocytes) [10]: 17 ratio

B7: Humanized antibody h63A10A7-19 (antibody, human IgG1, V domains shown)
VH: B8 VH
VL: B12 VL with Y36L, F71Y
notes: as for B8
- mean fluorescence intensity (MFI) [8]: 3830 MFI
- mean fluorescence intensity (MFI) [9]: 439 MFI
- Selective window (MFIA431/Hepatocytes) [10]: 8.7 ratio

B10: Humanized antibody h63A10A7-17 (antibody, human IgG1, V domains shown)
VH: B8 VH with M48I, M70L
VL: B12 VL with Y36L, F71Y
notes: as for B8
- mean fluorescence intensity (MFI) [8]: 10600 MFI
- mean fluorescence intensity (MFI) [9]: 677 MFI
- Selective window (MFIA431/Hepatocytes) [10]: 15.6 ratio

B13: Humanized antibody h63A10A7-20 (antibody, human IgG1, V domains shown)
VH: B8 VH with K38R, R40A, M48I, M70L
VL: B12 VL with Y36L, F71Y
notes: as for B8
- mean fluorescence intensity (MFI) [8]: 7460 MFI
- mean fluorescence intensity (MFI) [9]: 486 MFI
- Selective window (MFIA431/Hepatocytes) [10]: 15.4 ratio

B14: Humanized antibody h63A10A7-22 (antibody, human IgG1, V domains shown)
VH: B8 VH with M48I, M70L
VL: B12 VL with L3Q, Y36L, F71Y
notes: as for B8
- mean fluorescence intensity (MFI) [8]: 9380 MFI
- mean fluorescence intensity (MFI) [9]: 592 MFI
- Selective window (MFIA431/Hepatocytes) [10]: 15.8 ratio

B15: Humanized antibody h63A10A7-18 (antibody, human IgG1, V domains shown)
VH: B8 VH with M48I, M70L, R72A, T74Q, V79A
VL: B12 VL with Y36L, F71Y
notes: as for B8
- mean fluorescence intensity (MFI) [8]: 9140 MFI
- mean fluorescence intensity (MFI) [9]: 553 MFI
- Selective window (MFIA431/Hepatocytes) [10]: 16.5 ratio

B16: Humanized antibody h63A10A7-21 (antibody, human IgG1, V domains shown)
VH: B8 VH with M48I, K67R, A68V, M70L
VL: B12 VL with Y36L, F71Y
notes: as for B8
- mean fluorescence intensity (MFI) [8]: 7930 MFI
- mean fluorescence intensity (MFI) [9]: 568 MFI
- Selective window (MFIA431/Hepatocytes) [10]: 14 ratio
